The values below come from article PMC6175577, “BRCT domains of the DNA damage checkpoint proteins TOPBP1/Rad4 display distinct specificities for phosphopeptide ligands” (eLife, 2018).

One experiment addresses TOPBP1 BRCT0,1,2 (UniProt Q92547). Nature of the experiment: fluorescence polarisation titration. The note with it: reference: pT202 peptide, untreated; sites T202. On the technique in general: In fluorescence polarisation assays a small probe gives low polarisation when free and higher when bound to something large.
Experiment [1] deals with RAD9 pS387 (Homo sapiens) (UniProt Q99638). The note with it: cited from earlier work.
The target of experiment [2] is RHNO1 pT202 fluorescein-labelled phosphopeptide (human). Nature of the experiment: fluorescence polarisation; fluorescein-labelled peptide at 200 nM, increasing concentrations of recombinant protein; room temperature; 25 mM HEPES pH 7.5, 150 mM NaCl, 1 mM EDTA, 0.25 mM TCEP, 0.02% Tween-20; one site-specific binding model.

As usually defined, the Kd is the concentration at which binding is half-saturated.

Sequence of RAD9 pS387 (Homo sapiens) (Q99638 whole entry): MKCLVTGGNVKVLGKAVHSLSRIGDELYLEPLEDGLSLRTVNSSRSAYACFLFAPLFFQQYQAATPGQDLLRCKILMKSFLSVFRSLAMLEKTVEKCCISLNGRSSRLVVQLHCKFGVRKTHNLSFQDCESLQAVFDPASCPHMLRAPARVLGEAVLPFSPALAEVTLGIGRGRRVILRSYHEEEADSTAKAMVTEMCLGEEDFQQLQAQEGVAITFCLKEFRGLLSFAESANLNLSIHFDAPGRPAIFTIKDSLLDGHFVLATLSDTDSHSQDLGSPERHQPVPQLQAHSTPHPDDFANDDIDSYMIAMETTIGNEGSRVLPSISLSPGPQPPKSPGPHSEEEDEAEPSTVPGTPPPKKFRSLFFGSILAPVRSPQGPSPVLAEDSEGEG
Sequence of TOPBP1 BRCT1 (Q92547 98-192): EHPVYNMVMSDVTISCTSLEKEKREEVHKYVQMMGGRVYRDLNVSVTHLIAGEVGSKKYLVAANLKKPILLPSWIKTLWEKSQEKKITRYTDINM

Take “RHNO1 (from UniProt Q9BSD3) λ-phosphatase-dephosphorylated peptide”: the “binding against the reference” value in the experiment with TOPBP1 BRCT0,1,2 is reported as “lost”. For the substance TOPBP1 BRCT1 (from UniProt Q92547), the Kd in experiment [1] is 2.1 µM. For “TOPBP1-BRCT0,1,2 segment, wild type (recombinant, fluorescence polarisation) (domain or fragment)”, the fold tighter binding than RAD9-pS387 in experiment [2] was found to be 10 fold.
